In US12551571B2, “Protease-cleavable substrates and methods of use thereof” (CytomX Therapeutics, Inc., priority 2022, dated 2026):
Square brackets hold non-standard residues; d marks the D form. Ends that are not written are not given here. Peptide text beside a SMILES is read from it. * marks the point of attachment. Dnp = O=[N+]([O-])c1ccc(*)c([N+](=O)[O-])c1; Mca = COc1ccc2c(CC(=O)*)cc(=O)oc2c1

Tests used:
[1] = target: T1, MMP2 (Homo sapiens, UniProt P08253); assay: Internally quenched peptide probe cleavage assay, MMP2; type: biochemical; conditions: internally quenched peptide probe 20 μM (20 pM in source), 20 nM protease, 37° C.
T1 sequence (P08253 110-660): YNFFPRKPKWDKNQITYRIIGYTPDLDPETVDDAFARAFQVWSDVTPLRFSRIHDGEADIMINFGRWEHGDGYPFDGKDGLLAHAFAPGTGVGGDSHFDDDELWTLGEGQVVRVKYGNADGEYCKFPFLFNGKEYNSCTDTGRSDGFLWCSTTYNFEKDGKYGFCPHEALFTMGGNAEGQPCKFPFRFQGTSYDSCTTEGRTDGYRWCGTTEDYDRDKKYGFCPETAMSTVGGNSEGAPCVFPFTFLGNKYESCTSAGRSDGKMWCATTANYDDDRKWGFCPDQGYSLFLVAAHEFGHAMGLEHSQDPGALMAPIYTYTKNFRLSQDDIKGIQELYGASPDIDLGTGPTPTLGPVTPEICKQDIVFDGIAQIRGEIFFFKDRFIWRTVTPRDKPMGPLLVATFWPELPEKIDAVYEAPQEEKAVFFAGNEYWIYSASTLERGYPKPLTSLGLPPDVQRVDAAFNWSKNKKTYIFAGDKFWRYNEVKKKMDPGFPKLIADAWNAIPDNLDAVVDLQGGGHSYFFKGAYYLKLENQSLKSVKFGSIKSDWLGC
Description: (§1) The CMs listed in Table 9 below were presented in an internally quenched peptide probe format, rather than included in an activatable antibody format. […] Cleavability kinetics (i.e., pM/s and kcat/KM (M^-1s^-1)) were determined in 96- or 384-well plate format at 37° C. in the following buffers: 50 mM TRIS-HCl (pH 7.4), 150 mM NaCl, 0.05% Tween 20 for MT-SP1, 50 mM Tris-HCl (pH 7.5), 10 mM CaCl2, 150 mM NaCl, 0.05% (w/v) Brij-35 for MMP2 and MMP9, and 50 mM HEPES (pH 6.8), 10 mM CaCl2, 0.5 mM MgCl2, 0.05% (w/v) Brij-35 for MMP14. Cleavability kinetics were determined on an Infinite 200 PRO (Tecan) multimode plate reader using a fluorescence excitation wavelength of 320 nm and an emission wavelength of 405 nm. […] The CMs listed in Table 12 below were presented in an internally quenched peptide probe format, rather than included in an activatable antibody format. […] Cleavability kinetics (i.e., pM/s) were determined in 96- or 384-well plate format at 37° C. in the following buffers: 50 mM TRIS-HCl (pH 7.4), 150 mM NaCl, 0.05% Tween 20 for MT-SP1, 50 mM Tris-HCl (pH 7.5), 10 mM CaCl2, 150 mM NaCl, 0.05% (w/v) Brij-35 for MMP2 and MMP9, and 50 mM HEPES (pH 6.8), 10 mM CaCl2, 0.5 mM MgCl2, 0.05% (w/v) Brij-35 for MMP14. Cleavability kinetics were determined on an Infinite 200 PRO (Tecan) multimode plate reader using a fluorescence excitation wavelength of 320 nm and an emission wavelength of 405 nm.

[2] = target: MMP14 (Homo sapiens, UniProt P50281); assay: Internally quenched peptide probe cleavage assay, MMP14; type: biochemical; conditions: internally quenched peptide probe 20 μM (20 pM in source), 20 nM protease, 37° C.
Description: as §1

[3] = target: T2, MT-SP1 (Homo sapiens, UniProt Q9Y5Y6); assay: Internally quenched peptide probe cleavage assay, MT-SP1; type: biochemical; conditions: internally quenched peptide probe 20 μM (20 pM in source), 20 nM protease, 37° C.
T2 sequence (Q9Y5Y6 1-855): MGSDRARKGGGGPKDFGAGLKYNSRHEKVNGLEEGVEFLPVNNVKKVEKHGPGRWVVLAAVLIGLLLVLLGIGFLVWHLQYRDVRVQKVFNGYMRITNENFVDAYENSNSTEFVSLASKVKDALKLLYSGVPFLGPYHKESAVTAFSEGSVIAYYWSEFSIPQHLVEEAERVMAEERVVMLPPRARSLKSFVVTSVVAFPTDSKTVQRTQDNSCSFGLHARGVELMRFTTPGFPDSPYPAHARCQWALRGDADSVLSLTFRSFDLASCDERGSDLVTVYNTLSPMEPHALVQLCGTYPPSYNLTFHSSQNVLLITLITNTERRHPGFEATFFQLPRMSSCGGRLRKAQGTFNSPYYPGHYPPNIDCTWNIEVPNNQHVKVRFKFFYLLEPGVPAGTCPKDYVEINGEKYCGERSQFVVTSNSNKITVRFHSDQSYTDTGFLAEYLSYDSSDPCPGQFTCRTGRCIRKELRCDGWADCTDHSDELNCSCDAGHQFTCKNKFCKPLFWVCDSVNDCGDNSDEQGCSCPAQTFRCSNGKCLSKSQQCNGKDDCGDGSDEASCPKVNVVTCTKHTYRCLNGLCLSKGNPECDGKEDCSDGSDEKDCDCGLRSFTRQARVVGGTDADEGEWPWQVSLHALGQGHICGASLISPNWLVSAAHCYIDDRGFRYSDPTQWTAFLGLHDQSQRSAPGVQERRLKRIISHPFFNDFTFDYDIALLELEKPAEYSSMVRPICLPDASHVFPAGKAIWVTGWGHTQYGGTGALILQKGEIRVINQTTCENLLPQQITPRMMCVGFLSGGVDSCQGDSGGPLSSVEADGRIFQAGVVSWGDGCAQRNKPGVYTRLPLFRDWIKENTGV
Description: as §1

[4] = target: MMP9 (Homo sapiens, UniProt P14780); assay: Internally quenched peptide probe cleavage assay, MMP9; type: biochemical; conditions: internally quenched peptide probe 20 μM (20 pM in source), 20 nM protease, 37° C.
Sequence of MMP9 (P14780 94-707): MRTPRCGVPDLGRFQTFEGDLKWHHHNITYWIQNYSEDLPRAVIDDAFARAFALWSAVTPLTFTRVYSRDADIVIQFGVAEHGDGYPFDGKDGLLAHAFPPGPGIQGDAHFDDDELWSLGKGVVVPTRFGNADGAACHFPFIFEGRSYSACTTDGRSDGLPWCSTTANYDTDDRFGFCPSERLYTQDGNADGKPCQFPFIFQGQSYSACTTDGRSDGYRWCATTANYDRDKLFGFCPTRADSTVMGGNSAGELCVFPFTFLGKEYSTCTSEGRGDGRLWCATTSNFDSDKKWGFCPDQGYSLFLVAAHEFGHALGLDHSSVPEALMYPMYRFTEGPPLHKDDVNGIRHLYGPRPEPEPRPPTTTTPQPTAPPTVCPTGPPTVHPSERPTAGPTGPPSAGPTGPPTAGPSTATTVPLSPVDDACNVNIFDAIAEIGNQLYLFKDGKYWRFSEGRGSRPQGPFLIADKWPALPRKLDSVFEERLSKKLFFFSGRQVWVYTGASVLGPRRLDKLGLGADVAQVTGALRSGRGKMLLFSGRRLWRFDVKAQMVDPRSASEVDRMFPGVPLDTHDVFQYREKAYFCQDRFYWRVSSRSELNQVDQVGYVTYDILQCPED
Description: as §1

[5] = test system: supernatant from human bone marrow aspirates; assay: In situ stability of peptide probes in supernatant from human bone marrow aspirates; conditions: 20 μM peptide probe, 37° C.

| Molecule | Probe Cleavage (pM/s) MMP2 [1] [pM/s] | Probe Cleavage (pM/s) MMP14 [2] [pM/s] | Probe Cleavage (pM/s) MT-SP1 [3] [pM/s] | Probe Cleavage (pM/s) MMP9 [4] [pM/s] | cleavage rate in supernatant from human bone marrow aspirates [5] [pM/s] |
| --- | --- | --- | --- | --- | --- |
| PWGLHQSRS (also: MCA, Lys(DNP)-D-Arg labels, places not given here) | 2550 | 5880 | 1280 | 5150 | 302 |
| AIALHQSRS (also: MCA, Lys(DNP), D-Arg labels, places not given here) | 4220 | 1280 | 11500 | 2550 |  |
| HQSRSAPWGLL (Mca-HQSRSAPWGLL-{Lys(DNP)-dR}) |  | 660 |  |  |  |
| HQSRAGPWGLL (Mca-HQSRAGPWGLL-{Lys(DNP)-dR}) | 594 | 379 |  |  |  |
| COc1ccc2c(CC(=O)N[C@@H](CO)C(=O)N3CCC[C@H]3C(=O)N[C@@H](C)C(=O)NCC(=O)N[C@@H](CC(C)C)C(=O)N[C@@H](CO)C(=O)NCC(=O)N[C@@H](CCCNC(=N)N)C(=O)N[C@@H](CO)C(=O)NCC(=O)N[C@@H](CCCCNc3ccc([N+](=O)[O-])cc3[N+](=O)[O-])C(=O)N[C@H](CCCNC(=N)N)C(=O)O)cc(=O)oc2c1 [reference compound] (Mca-SPAGLSGRSGK(Dnp)[dR]-OH) |  |  |  |  | 2191 |
| HQSRSAIAL (Mca-HQSRSAIAL-{Lys(DNP)-dR}) | 76.9 | 95.5 |  | 41.9 |  |
| HQSRSGPWGAL (Mca-HQSRSGPWGAL-{Lys(DNP)-dR}) | 61.1 | 0.00 |  | 5.9 |  |
| HQSRSGPWGLA (Mca-HQSRSGPWGLA-{Lys(DNP)-dR}) | 410 | 345 |  |  |  |
| HQSRSAIALYA (also: MCA, Lys(DNP), D-Arg labels, places not given here) [X1 is Y and X2 is A] | 468 | 300 | 1750 | 255 |  |
| HQARSGPWGLL (Mca-HQARSGPWGLL-{Lys(DNP)-dR}) | 623 | 344 |  |  |  |
| HQSRSPWG (Mca-HQSRSPWG-{Lys(DNP)-dR}) | 61.6 | 0.00 |  | 86.5 |  |
| HQSASGPWGLL (also: MCA, Lys(DNP), D-Arg labels, places not given here) | 696 | 335 | 8.00 |  |  |
| HQSRPWGL (also: MCA, Lys(DNP), D-Arg labels, places not given here) |  | 548 | 32.0 |  |  |

Further lines, with some results ahead:

| Probe Cleavage (pM/s) MMP2 [1] [pM/s] | Probe Cleavage (pM/s) MMP14 [2] [pM/s] | Probe Cleavage (pM/s) MT-SP1 [3] [pM/s] | Probe Cleavage (pM/s) MMP9 [4] [pM/s] | Molecule | cleavage rate in supernatant from human bone marrow aspirates [5] [pM/s] |
| --- | --- | --- | --- | --- | --- |
| 726 | 437 |  |  | AQSRSGPWGLL (Mca-AQSRSGPWGLL-{Lys(DNP)-dR}) |  |
| 434 | 92.7 | 1960 | 328 | HQSRSAIALY (also: MCA, Gly-Lys(DNP)-D-Arg labels, places not given here) [X1 is Y] |  |
| 94.8 | 27.3 |  | 705 | HQSRSGPWGL (Mca-HQSRSGPWGL-{Lys(DNP)-dR}) [X1 absent] |  |
| 65.4 | 36.4 |  | 436 | HQSRSGAWGLL (Mca-HQSRSGAWGLL-{Lys(DNP)-dR}) |  |
| 692 | 424 |  |  | HASRSGPWGLL (Mca-HASRSGPWGLL-{Lys(DNP)-dR}) |  |
| 488 | 475 |  |  | HQSRSGPWALL (Mca-HQSRSGPWALL-{Lys(DNP)-dR}) |  |
